Assay results reported in PMC3568127 (2013).

B1: His6-tagged VEGF-A165-HBD (heparin binding domain of human vascular endothelial growth factor VEGF-A165) (domain or fragment)
chain: PCGPCSERRKHLFVQDPQTCKCSCKNTDSRCKARQLELNERTCRCDKPRR
B2: VEGF-A165-HBD with the His6-tag removed (domain or fragment)
chain: B1 chain
B3: VEGF-A165 (R&D Systems), unlabelled (ligand)
chain: APMAEGGGQNHHEVVKFMDVYQRSYCHPIETLVDIFQEYPDEIEYIFKPSCVPLMRCGGCCNDEGLECVPTEESNITMQIMRIKPHQGQHIGEMSFLQHNKCECRPKKDRARQENPCGPCSERRKHLFVQDPQTCKCSCKNTDSRCKARQLELNERTCRCDKPRR
modifications: Disulfide-linked homodimer. Mature VEGF165 (equals P15692-4 residues 27-191, 165 aa) is built from the 395-aa displayed form by removing exon 6a, with K to N at the splice junction. Limits follow the standard mature VEGF165; the paper does not print them.

Assays:
[1] = target: T1, NRP1 (neuropilin 1) expressed from an adenovirus on DU145 cells (UniProt O14786 22-923); test: competition with bt-VEGF-A165 on DU145 cells
[2] = target: T1, NRP1 (neuropilin 1) expressed from an …; test: competition with bt-VEGF-A165 on DU145 cells, +BSA

T1 sequence (O14786 22-923): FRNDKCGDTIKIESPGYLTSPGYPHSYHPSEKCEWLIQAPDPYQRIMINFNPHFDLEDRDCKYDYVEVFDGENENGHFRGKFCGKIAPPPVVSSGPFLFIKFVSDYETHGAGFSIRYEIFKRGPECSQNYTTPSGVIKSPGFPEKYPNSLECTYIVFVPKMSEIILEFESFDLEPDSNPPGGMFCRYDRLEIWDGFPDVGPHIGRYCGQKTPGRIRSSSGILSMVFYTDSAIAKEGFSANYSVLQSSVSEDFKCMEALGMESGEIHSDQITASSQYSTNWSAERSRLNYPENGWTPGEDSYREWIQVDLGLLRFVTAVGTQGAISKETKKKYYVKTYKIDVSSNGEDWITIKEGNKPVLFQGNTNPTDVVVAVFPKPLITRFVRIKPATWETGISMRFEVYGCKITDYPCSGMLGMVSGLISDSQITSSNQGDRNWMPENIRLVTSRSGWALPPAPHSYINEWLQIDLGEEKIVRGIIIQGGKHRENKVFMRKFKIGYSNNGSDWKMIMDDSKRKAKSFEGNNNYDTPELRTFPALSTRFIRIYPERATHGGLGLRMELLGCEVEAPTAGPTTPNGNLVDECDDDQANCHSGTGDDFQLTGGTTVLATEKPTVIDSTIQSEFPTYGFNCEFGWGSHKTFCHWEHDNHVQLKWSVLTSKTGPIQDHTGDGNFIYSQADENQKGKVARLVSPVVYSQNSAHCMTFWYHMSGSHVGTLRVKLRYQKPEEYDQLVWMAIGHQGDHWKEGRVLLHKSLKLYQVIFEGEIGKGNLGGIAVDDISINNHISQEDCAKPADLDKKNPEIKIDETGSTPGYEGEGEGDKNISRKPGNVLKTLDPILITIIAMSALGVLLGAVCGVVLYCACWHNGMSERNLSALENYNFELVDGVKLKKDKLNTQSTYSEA

Binder | IC50 [1] [nM] | IC50 [2] [nM]
B1 | 161 | 152
B2 | 107 | 229
B3 | 0.8 | –
